3 molecules from patent publication US20180215829A1 (CRESCENDO BIOLOGICS, published 2018) can be followed below.

The target in assay [1] is T1, recombinant human IL-17RA Fc fusion protein (R&D Systems 177-IR-100) (human, UniProt Q96F46 33-320).
T1 construct: Bought protein; not shown: Fc domain of human IgG1
T1 sequence: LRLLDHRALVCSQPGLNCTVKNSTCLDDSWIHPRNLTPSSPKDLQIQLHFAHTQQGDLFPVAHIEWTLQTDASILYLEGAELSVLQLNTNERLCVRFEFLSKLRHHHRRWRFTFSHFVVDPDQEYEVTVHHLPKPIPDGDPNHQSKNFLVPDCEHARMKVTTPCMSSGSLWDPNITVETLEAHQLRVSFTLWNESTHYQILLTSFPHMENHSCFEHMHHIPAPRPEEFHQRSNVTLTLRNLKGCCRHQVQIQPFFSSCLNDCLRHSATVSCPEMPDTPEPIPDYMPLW
The experiment in a line: IL-17RA ligand inhibition ELISA (FIG. 10B): VH competes with IL-17A for coated IL-17RA-Fc. The protocol:
(§1) VH, both purified and crude periplasmic extracts, were also tested for their ability to inhibit the interaction of IL-17A with recombinant IL-17RA-Fc. […] Following washing of excess coating antigen, as described above, the wells of the plate were incubated with 3% Marvel/PBS to block non-specific protein interactions. VH preparations, crude periplasmic extracts or purified VH, or suitable controls, were prepared with 1 nM recombinant IL-17A (Peprotech, cat# AF-200-17) in 3% skimmed milk powder/PBS solution in polypropylene plates or tubes. The mixture was then transferred to the assay plate and incubated for 1 hour at room temperature. Excess protein was removed by washing and bound IL-17A was detected by incubation with biotinylated anti-IL-17A Mab (R & D Systems, cat BAF317) followed by the addition of neutravidin-HRP (Pierce, cat#31030) and TMB substrate (Sigma, cat# T0440). The TMB reaction was stopped by addition of 0.5M H₂SO₄ and absorbances were measured at 450 nm in a plate reader.
On the technique in general: An ELISA detects its analyte on a solid surface through an enzyme-linked reagent.

Assay [2] concerns the target T2, human IL-17RA on HT1080 cells (human, UniProt Q96F46 33-866).
T2 sequence: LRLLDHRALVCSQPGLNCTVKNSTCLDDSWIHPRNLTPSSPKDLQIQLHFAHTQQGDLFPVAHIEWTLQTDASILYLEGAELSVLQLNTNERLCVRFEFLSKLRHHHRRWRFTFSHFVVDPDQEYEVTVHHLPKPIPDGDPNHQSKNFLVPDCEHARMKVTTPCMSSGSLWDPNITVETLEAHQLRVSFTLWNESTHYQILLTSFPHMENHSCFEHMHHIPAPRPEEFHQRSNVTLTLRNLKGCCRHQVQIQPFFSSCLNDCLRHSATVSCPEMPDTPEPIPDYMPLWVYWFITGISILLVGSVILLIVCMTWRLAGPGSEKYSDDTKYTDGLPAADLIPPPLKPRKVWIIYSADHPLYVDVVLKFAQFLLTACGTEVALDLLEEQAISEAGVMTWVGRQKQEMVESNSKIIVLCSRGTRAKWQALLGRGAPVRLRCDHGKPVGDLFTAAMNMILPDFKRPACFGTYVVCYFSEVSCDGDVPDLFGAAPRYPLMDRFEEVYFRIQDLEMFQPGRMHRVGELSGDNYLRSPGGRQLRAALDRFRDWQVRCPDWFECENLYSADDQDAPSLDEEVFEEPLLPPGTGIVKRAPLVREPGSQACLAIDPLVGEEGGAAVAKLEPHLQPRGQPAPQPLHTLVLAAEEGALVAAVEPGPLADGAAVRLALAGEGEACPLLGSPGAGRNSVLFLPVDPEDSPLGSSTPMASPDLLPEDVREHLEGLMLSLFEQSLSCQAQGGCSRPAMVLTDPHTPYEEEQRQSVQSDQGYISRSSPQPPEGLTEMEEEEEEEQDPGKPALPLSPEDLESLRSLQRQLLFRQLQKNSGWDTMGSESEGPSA
Kind of assay: cell-based or functional assay.

Assay [3] addresses T2, human IL-17RA on HT1080 cells. Kind of assay: cell-based or functional assay. The source holds these as a separate data set.
Assay [4] has as its target T1, recombinant human IL-17RA Fc fusion …. The experiment in a line: receptor/ligand biochemical inhibition ELISA: VH competes with 1 nM IL-17A for coated IL-17RA-Fc. The protocol:
as §1

For assay [5] the target is unchanged. The experiment in a line: BIAcore T200 single-cycle kinetics, IL-17RA-Fc captured on protein G chip, VH as analyte. Here is the method: Binding kinetics of anti-IL-17RA VH antibodies were measured on a BIAcore® T200 instrument. For IL-17RA, first a protein G chip was prepared by diluting protein G to 20 ug/ml in acetate buffer, pH 4 (BIAcore®, cat# BR-100-49) and then coupled 1200 RU to a CM5 Series S chip using amine coupling chemistry. This surface was then used to capture IL-17RA Fc fusion protein from solution: IL-17RA at 10 ug/ml in HBS injected for 10 seconds at 30 ul/min flow rate would capture approximately 100-150 RU of IL-17RA onto the protein G surface.
Binding kinetics of anti-IL-17RA VH antibodies were determined by single-cycle kinetics. VH antibodies were prepared in dilution series (typically 1:3 dilution series starting with 100 nM VH at the highest concentration), and then injected over the antigen coated surfaces and also a blank surface, starting with the lowest concentration of VH and then working progressively up to the highest concentration. VH binding kinetics were then determined from the (blank subtracted) sensorgram traces using 1:1 binding models and BIAevaluation software.
A general note: SPR reads the build-up and loss of mass on a sensor chip optically.

For assay [6] the target is unchanged. Kind of assay: affinity against parent clone 2.1; method not given.

B1: VH clone 3.20 (VHH)
VHH: QVQLVESGGGLVQPGGSLRLSCAASGFPFSTYWMRWLRQAPGKGLEWVANIKQDGSEKYYVDSVKGRFTISRDNAKNSLFLQMNSLRAEDTAVYYCARGWESGWFEPWGQGTLVTVSS
notes: Human VH single domain antibody, no light chain; Family 3; also called VH 3.20
By IC50 is commonly meant the midpoint of a concentration-inhibition curve. B1: in assay [1], the IC50 came out at 22 nM.

B2: VH clone 4.55 (VHH)
VHH: QVQLQQSGAEVKKPGASVKVSCKASGYTFTSYDISWVRQATGQSLEYMGWMNPNSGNTGYAQKFQGRVTMTRNTSISTAYMELSSLRSEDTAVYYCARGGITEWRRDYWGQGTLVTVSS
notes: Human VH single domain antibody, no light chain; Family 4
Take B2: in assay [1], the IC50 was 6930 nM.

B3: VH clone 2.2 (VHH)
VHH: QVQLVQSGAEVKKPGASVKVSCKASGYPFTSYDINWVRQATGRSLEWMGWMNPTNGNTVYAQKFQDRVTMTRNTSISTAYMELSSLRSEDTAVYFCARGRRDDWKNNYWGQGTLVTVSS
notes: Human VH single domain antibody, no light chain; Optimised variant of clone 2.1; also called VH 2.2
A word on the Kd: it is a measure of binding affinity in units of concentration. The term koff denotes a measure of how fast the partners let go of each other. The kon is the rate constant with which the complex forms. On to B3, for which, in assay [2], the “IC50 (nM), cell-based assay” value came out at 165 nM. For the same molecule, the “Cell assay IC50” value in assay [3] was 61 nM. The IC50 in assay [4] was found to be 1.4 nM. In assay [5], the Kd was found to be 1.4 nM, the koff is 0.000799 s⁻¹ and the kon turned out to be 579000 M⁻¹ s⁻¹. Besides, the “fold improvement in affinity against clone 2.1” value in assay [6] amounted to 10 fold.
